These results are taken from PMC3828642, “1-Aminocyclopropane-1-carboxylic acid oxidase reaction mechanism and putative post-translational activities of the ACCO protein” (AoB Plants, 2013).

The term Km denotes the substrate concentration at which the rate is half of its maximum.

Substrate in the series: NC1(C(=O)O)CC1
Nature of the series: purified protein. The conditions noted are these: Fe(II), ascorbate, bicarbonate active-site Fe(II); Arg175, Arg244 and Ser246 affect ACC binding.

B1: 1-aminocyclopropane-1-carboxylic acid oxidase (ACCO1) (Malus domestica) (protein)
chain: MATFPVVDLSLVNGEERAATLEKINDACENWGFFELVNHGMSTELLDTVEKMTKDHYKKTMEQRFKEMVAAKGLDDVQSEIHDLDWESTFFLRHLPSSNISEIPDLEEEYRKTMKEFAVELEKLAEKLLDLLCENLGLEKGYLKKVFYGSKGPNFGTKVSNYPPCPKPDLIKGLRAHSDAGGIILLFQDDKVSGLQLLKDGEWVDVPPMHHSIVINLGDQIEVITNGKYKSVMHRVIAQSDGTRMSIASFYNPGNDSFISPAPAVLEKKTEDAPTYPKFVFDDYMKLYSGLKFQAKEPRFEAMKAKESTPVATA
For B1, the Km is reported as 51 µM.
